The test deals with T1, Tom20 (UniProt Q15388 1-145).
T1 construct: Endogenous mitochondrial protein used as a specificity control in the MAVS co-IP
T1 sequence (looked up): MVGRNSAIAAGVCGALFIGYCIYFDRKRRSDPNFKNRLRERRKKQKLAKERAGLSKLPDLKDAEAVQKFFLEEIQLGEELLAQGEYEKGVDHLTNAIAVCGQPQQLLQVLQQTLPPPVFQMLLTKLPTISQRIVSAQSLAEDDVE
Description: co-immunoprecipitation with MAVS antibody from HEK293 lysates, immunoblot (FIG. 2E).

B1: mitochondrial antiviral-signaling protein (MAVS) (other)
chain: MPFAEDKTYKYICRNFSNFCNVDVVEILPYLPCLTARDQDRLRATCTLSGNRDTLWHLFNTLQRRPGWVEYFIAALRGCELVDLADEVASVYESYQPRTSDRPPDPLEPPSLPAERPGPPTPAAAHSIPYNSCREKEPSYPMPVQETQAPESPGENSEQALQTLSPRAIPRNPDGGPLESSSDLAALSPLTSSGHQEKDTELGSTHTAGATSSLTPSRGPVSPSVSFQPLARSTPRASRLPGPTGSVVSTGTSFSSSSPGLASAGAAEGKQGAESDQAEPIICSSGAEAPANSLPSKVPTTLMPVNTVALKVPANPASVSTVPSKLPTSSKPPGAVPSNALTNPAPSKLPINSTRAGMVPSKVPTSMVLTKVSASTVPTDGSSRNEETPAAPTPAGATGGSSAWLDSSFENRGLGSELSKPGVLASQVDSPFSGCFEDLAISASTSLGMGPCHGPEENEYKSEGTFGIHVAENPSIQLLEGNPGPPADPDGGPRPQADRKFQEREVPCHRPSPGALWLQVAVTGVLVVTLLVVLYRRRLH
notes: Endogenous full-length MAVS in HEK293 lysates or on isolated mitochondria; also called MAVS protein
Turning to B1, the binding result was “no binding”.

The record behind these values is US20200377551A1 (WAKE FOREST UNIVERSITY HEALTH SCIENCES, published 2020).
